Data published in paper PMC3463533.

Tests used:
[1] = anti-V5 immunoblot of culture medium
[2] = NP-40-insoluble fraction, anti-V5 immunoblot
[3] = glycan lost, control: wild type
[4] = glycan changed form, control: untreated
[5] = glycan lost, control: untreated

Substance: Surfactant protein A2 (SP-A2): N207A
- expression_or_secretion [1, 3]: decreases
- other: NP-40-insoluble aggregation [2, 3]: increases

Substance: Surfactant protein A2 (SP-A2): N207Q
- expression_or_secretion [1, 3]: decreases
- other: NP-40-insoluble aggregation [2, 3]: increases

Substance: Surfactant protein A2 (SP-A2): N207S
- expression_or_secretion [1, 3]: decreases
- other: NP-40-insoluble aggregation [2, 3]: increases

Substance: Surfactant protein A2 (SP-A2): N207T
- expression_or_secretion [1, 3]: decreases
- other: NP-40-insoluble aggregation [2, 3]: increases

Substance: Surfactant protein A2 (SP-A2): swainsonine
- expression_or_secretion [1, 4]: no change
- other: NP-40-insoluble aggregation [2, 4]: no change

Substance: Surfactant protein A2 (SP-A2): tunicamycin
- expression_or_secretion [1, 5]: decreases
- other: NP-40-insoluble aggregation [2, 5]: increases
